{"source": "the supplement of paper PMC10567573", "parents": {"B1": {"name": "TRIM63 (parent)", "chain": "ANPYWTSRGSSVSMSGGRFRCPTC"}}}
{"variants_of": "B1", "assay": "protein stability index of a GFP-peptide fusion (GPS, HEK-293T) (PSI 1-6); higher = more stable", "conditions": "c terminus: a fixed tail appended"}
{"variant": "P3E", "protein stability index": 1.91}
{"variant": "P3G", "protein stability index": 1.18}
{"variant": "P3A", "protein stability index": 2.08}
{"variant": "P3T", "protein stability index": 2.08}
{"variant": "P3Y", "protein stability index": 2.38}
{"variant": "P3S", "protein stability index": 1.36}
{"variant": "P3I", "protein stability index": 2.14}
{"variant": "P3H", "protein stability index": 2.82}
{"variant": "P3R", "protein stability index": 1.84}
{"variant": "P3F", "protein stability index": 2.13}
{"variant": "P3M", "protein stability index": 1.54}
{"variant": "P3N", "protein stability index": 1.07}
{"variant": "P3Q", "protein stability index": 2.2}
{"variant": "S10V", "protein stability index": 1.72}
{"variant": "S10E", "protein stability index": 1.76}
{"variant": "S10A", "protein stability index": 1.68}
{"variant": "S10K", "protein stability index": 1.65}
{"variant": "S10W", "protein stability index": 3.35}
{"variant": "S10T", "protein stability index": 2.24}
{"variant": "S10C", "protein stability index": 2.18}
{"variant": "S10L", "protein stability index": 1.46}
{"variant": "S10F", "protein stability index": 2.56}
{"variant": "S10P", "protein stability index": 1.75}
{"variant": "S10M", "protein stability index": 1.84}
{"variant": "S10H", "protein stability index": 2.44}
{"variant": "S10Y", "protein stability index": 1.57}
{"variant": "S10Q", "protein stability index": 2.83}
{"variant": "W5F", "protein stability index": 1.41}
{"variant": "W5V", "protein stability index": 2.59}
{"variant": "W5S", "protein stability index": 1.9}
{"variant": "W5G", "protein stability index": 2.45}
{"variant": "W5Q", "protein stability index": 2.62}
{"variant": "W5T", "protein stability index": 1.76}
{"variant": "W5P", "protein stability index": 2.44}
{"variant": "W5M", "protein stability index": 2.16}
{"variant": "W5C", "protein stability index": 1.6}
{"variant": "W5L", "protein stability index": 1.73}
{"variant": "W5N", "protein stability index": 2.44}
{"variant": "W5Y", "protein stability index": 1.7}
{"variant": "W5E", "protein stability index": 2.25}
{"variant": "W5A", "protein stability index": 1.92}
{"variant": "W5D", "protein stability index": 2.19}
{"variant": "W5H", "protein stability index": 2.17}
{"variant": "N2Q", "protein stability index": 1.23}
{"variant": "N2S", "protein stability index": 1.89}
{"variant": "N2M", "protein stability index": 1.6}
{"variant": "N2C", "protein stability index": 2.43}
{"variant": "N2G", "protein stability index": 1.84}
{"variant": "N2E", "protein stability index": 2.51}
{"variant": "N2K", "protein stability index": 1.59}
{"variant": "N2F", "protein stability index": 1.6}
{"variant": "N2P", "protein stability index": 1.76}
{"variant": "N2R", "protein stability index": 2.05}
{"variant": "N2Y", "protein stability index": 2.14}
{"variant": "N2L", "protein stability index": 1.37}
{"variant": "N2H", "protein stability index": 2.3}
{"variant": "N2A", "protein stability index": 2.08}
{"variant": "N2T", "protein stability index": 1.73}
{"variant": "N2I", "protein stability index": 3.56}
{"variant": "G9L", "protein stability index": 1.56}
{"variant": "G9Q", "protein stability index": 1.3}
{"variant": "G9D", "protein stability index": 1.94}
{"variant": "G9S", "protein stability index": 1.9}
{"variant": "G9R", "protein stability index": 2.15}
{"variant": "G9N", "protein stability index": 2.13}
{"variant": "G9I", "protein stability index": 1.39}
{"variant": "G9P", "protein stability index": 1.76}
{"variant": "G9E", "protein stability index": 1.6}
{"variant": "G9Y", "protein stability index": 2.32}
{"variant": "G9K", "protein stability index": 1.98}
{"variant": "G9H", "protein stability index": 1.31}
{"variant": "G9V", "protein stability index": 1.91}
{"variant": "G9M", "protein stability index": 1.39}
{"variant": "G9F", "protein stability index": 1.92}
{"variant": "G9A", "protein stability index": 1.7}
{"variant": "G9W", "protein stability index": 1.43}
{"variant": "A1Q", "protein stability index": 1.49}
{"variant": "A1I", "protein stability index": 1.53}
{"variant": "A1P", "protein stability index": 1.28}
{"variant": "A1L", "protein stability index": 1.89}
{"variant": "A1E", "protein stability index": 2.31}
{"variant": "A1M", "protein stability index": 2.07}
{"variant": "A1V", "protein stability index": 2.21}
{"variant": "A1F", "protein stability index": 2.58}
{"variant": "A1T", "protein stability index": 1.88}
{"variant": "A1G", "protein stability index": 1.66}
{"variant": "A1R", "protein stability index": 2.08}
{"variant": "A1N", "protein stability index": 2.18}
{"variant": "A1S", "protein stability index": 2.69}
{"variant": "A1K", "protein stability index": 2.1}
{"variant": "A1D", "protein stability index": 1.67}
{"variant": "A1H", "protein stability index": 1.88}
{"variant": "R8K", "protein stability index": 1.95}
{"variant": "R8G", "protein stability index": 1.55}
{"variant": "R8T", "protein stability index": 1.8}
{"variant": "R8P", "protein stability index": 1.55}
{"variant": "R8I", "protein stability index": 1.4}
{"variant": "R8N", "protein stability index": 1.92}
{"variant": "R8Y", "protein stability index": 1.71}
{"variant": "R8M", "protein stability index": 1.39}
{"variant": "R8D", "protein stability index": 1.91}
{"variant": "R8C", "protein stability index": 1.23}
{"variant": "R8E", "protein stability index": 3.19}
{"variant": "R8H", "protein stability index": 1.41}
{"variant": "R8S", "protein stability index": 1.65}
{"variant": "R8Q", "protein stability index": 1.99}
{"variant": "R8F", "protein stability index": 1.27}
{"variant": "R8V", "protein stability index": 1.95}
{"variant": "R8L", "protein stability index": 2.33}
{"variant": "R8A", "protein stability index": 1.85}
{"variant": "Y4F", "protein stability index": 1.57}
{"variant": "Y4C", "protein stability index": 2.92}
{"variant": "Y4W", "protein stability index": 2.18}
{"variant": "Y4A", "protein stability index": 1.33}
{"variant": "Y4R", "protein stability index": 1.47}
{"variant": "Y4T", "protein stability index": 2.17}
{"variant": "Y4M", "protein stability index": 1.75}
{"variant": "Y4D", "protein stability index": 2.51}
{"variant": "Y4S", "protein stability index": 1.65}
{"variant": "Y4N", "protein stability index": 2.34}
{"variant": "Y4E", "protein stability index": 2.1}
{"variant": "Y4K", "protein stability index": 2.09}
{"variant": "Y4I", "protein stability index": 2.8}
{"variant": "Y4Q", "protein stability index": 1.69}
{"variant": "Y4V", "protein stability index": 1.56}
{"variant": "Y4G", "protein stability index": 1.36}
{"variant": "S11H", "protein stability index": 2.68}
{"variant": "S11F", "protein stability index": 2.15}
{"variant": "S11I", "protein stability index": 3.32}
{"variant": "S11L", "protein stability index": 1.1}
{"variant": "S11C", "protein stability index": 1.88}
{"variant": "S11M", "protein stability index": 1.63}
{"variant": "S11A", "protein stability index": 2.3}
{"variant": "S11K", "protein stability index": 1.29}
{"variant": "S11E", "protein stability index": 1.76}
{"variant": "S11D", "protein stability index": 2.08}
{"variant": "T6R", "protein stability index": 2.2}
{"variant": "T6K", "protein stability index": 1.56}
{"variant": "T6M", "protein stability index": 2.24}
{"variant": "T6E", "protein stability index": 1.51}
{"variant": "T6G", "protein stability index": 2.44}
{"variant": "T6H", "protein stability index": 2.12}
{"variant": "T6Q", "protein stability index": 3.06}
{"variant": "T6A", "protein stability index": 2.1}
{"variant": "T6D", "protein stability index": 1.83}
{"variant": "T6I", "protein stability index": 1.84}
{"variant": "T6Y", "protein stability index": 1.69}
{"variant": "T6N", "protein stability index": 1.74}
{"variant": "T6S", "protein stability index": 1.45}
{"variant": "T6P", "protein stability index": 1.66}
{"variant": "T6W", "protein stability index": 1.48}
{"variant": "T6C", "protein stability index": 1.58}
{"variant": "S7E", "protein stability index": 1.28}
{"variant": "S7T", "protein stability index": 1.58}
{"variant": "S7M", "protein stability index": 2.53}
{"variant": "S7Q", "protein stability index": 2.29}
{"variant": "S7F", "protein stability index": 2.07}
{"variant": "S7V", "protein stability index": 1.93}
{"variant": "S7P", "protein stability index": 1.27}
{"variant": "S7A", "protein stability index": 2.41}
{"variant": "S7L", "protein stability index": 1.6}
{"variant": "S7N", "protein stability index": 1.37}
{"variant": "S7H", "protein stability index": 1.45}
{"variant": "S7Y", "protein stability index": 1.54}
{"variant": "S7I", "protein stability index": 3.16}
{"variant": "S7W", "protein stability index": 2.62}
{"variant": "S7D", "protein stability index": 2.38}
